Laboratory results reported in the supplement of paper PMC9112550, “Optimization of the antimicrobial peptide Bac7 by deep mutational scanning” (BMC Biology, 2022).

test system: Escherichia coli TOP10; experiment: shrunken log2 fold change of peptide-encoding DNA abundance (4.5 h post-induction vs induction); higher = less antimicrobial activity (less host growth inhibition); settings: time post-induction: 4.5 h; library: site-saturation at positions 5, 18, 19, 20
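Also: peptides expressed intracellularly from a pBAD plasmid library in pooled LB shake-flask culture, induced with 0.3% L-arabinose, DNA abundance read by NGS, three biological replicates, DESeq2 with apeglm shrinkage.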

Row | Sequence | shrunken log2 fold change
1 | RRIRGRPPRLPRPRPRPDCRPRP | 0.68
2 | RRIRWRPPRLPRPRPRPMPTPRP | 0.721
3 | RRIRMRPPRLPRPRPRPADHPRP | 0.173
4 | RRIRRRPPRLPRPRPRPNKSPRP | -0.0615
5 | RRIRIRPPRLPRPRPRPTFHPRP | -0.266
6 | RRIRSRPPRLPRPRPRPDMQPRP | -0.00211
7 | RRIRLRPPRLPRPRPRPYRIPRP | -0.796
8 | RRIRLRPPRLPRPRPRPEPIPRP | 0.0321
9 | RRIRPRPPRLPRPRPRPAFLPRP | -0.0283
10 | RRIRQRPPRLPRPRPRPMEIPRP | -0.0109
11 | RRIRYRPPRLPRPRPRPVSKPRP | -0.069
12 | RRIRDRPPRLPRPRPRPLAKPRP | 0.96
13 | RRIRARPPRLPRPRPRPEVGPRP | 1.42
14 | RRIRARPPRLPRPRPRPNQEPRP | -0.000902
15 | RRIRERPPRLPRPRPRPEMAPRP | 0.414
16 | RRIRERPPRLPRPRPRPSHAPRP | -0.0485
17 | RRIRTRPPRLPRPRPRPVWSPRP | -0.00993
18 | RRIRNRPPRLPRPRPRPCLKPRP | -0.315
19 | RRIRSRPPRLPRPRPRPCVCPRP | 0.0568
20 | RRIRSRPPRLPRPRPRPHRNPRP | -0.489
21 | RRIRIRPPRLPRPRPRPAYHPRP | -0.639
22 | RRIRIRPPRLPRPRPRPIINPRP | -1.15
23 | RRIRDRPPRLPRPRPRPTTKPRP | 0.0962
24 | RRIRARPPRLPRPRPRPEQTPRP | 1.18
25 | RRIRHRPPRLPRPRPRPYKCPRP | -0.0105

Row | Sequence | shrunken log2 fold change
26 | RRIRLRPPRLPRPRPRPATDPRP | 0.142
27 | RRIRGRPPRLPRPRPRPRPFPRP | 0.889
28 | RRIRWRPPRLPRPRPRPPDQPRP | 0.694
29 | RRIRARPPRLPRPRPRPIVMPRP | -0.0831
30 | RRIRYRPPRLPRPRPRPLACPRP | -0.319
31 | RRIRVRPPRLPRPRPRPADIPRP | -0.235
32 | RRIRRRPPRLPRPRPRPVKRPRP | 0.457
33 | RRIRCRPPRLPRPRPRPLEWPRP | 0.0823
34 | RRIRHRPPRLPRPRPRPHHMPRP | -0.324
35 | RRIRDRPPRLPRPRPRPQWPPRP | -0.0971
36 | RRIRERPPRLPRPRPRPNMQPRP | -0.664
37 | RRIRMRPPRLPRPRPRPRHQPRP | 0.155
38 | RRIRLRPPRLPRPRPRPWHYPRP | -0.164
39 | RRIRRRPPRLPRPRPRPKTDPRP | 0.163
40 | RRIRDRPPRLPRPRPRPHMIPRP | -0.125
41 | RRIRPRPPRLPRPRPRPRTHPRP | 0.107
42 | RRIRPRPPRLPRPRPRPRDWPRP | 0.531
43 | RRIRRRPPRLPRPRPRPFDRPRP | 0.542
44 | RRIRIRPPRLPRPRPRPYWWPRP | -0.259
45 | RRIRIRPPRLPRPRPRPFCSPRP | -0.426
46 | RRIRMRPPRLPRPRPRPQDPPRP | 0.786
47 | RRIRYRPPRLPRPRPRPHRNPRP | -0.745
48 | RRIRIRPPRLPRPRPRPPIDPRP | -0.724
49 | RRIRMRPPRLPRPRPRPPNVPRP | 0.301
50 | RRIRDRPPRLPRPRPRPKTVPRP | 0.271

Row | Sequence | shrunken log2 fold change
51 | RRIRIRPPRLPRPRPRPIPCPRP | -0.00867
52 | RRIRDRPPRLPRPRPRPERLPRP | 0.659
53 | RRIRERPPRLPRPRPRPRWPPRP | 0.486
54 | RRIRVRPPRLPRPRPRPHFDPRP | 0.0221
55 | RRIRIRPPRLPRPRPRPVALPRP | -0.278
56 | RRIRERPPRLPRPRPRPGNKPRP | -0.00852
57 | RRIRWRPPRLPRPRPRPWGTPRP | -0.0421
58 | RRIRGRPPRLPRPRPRPFGRPRP | -0.0748
59 | RRIRTRPPRLPRPRPRPCDGPRP | 0.134
60 | RRIRHRPPRLPRPRPRPFLKPRP | -0.0136
61 | RRIRPRPPRLPRPRPRPSHDPRP | -0.339
62 | RRIRHRPPRLPRPRPRPAHGPRP | 0.0855
63 | RRIRPRPPRLPRPRPRPSRYPRP | -0.163
64 | RRIRRRPPRLPRPRPRPPLYPRP | 0.851
65 | RRIRYRPPRLPRPRPRPTENPRP | -0.239
66 | RRIRSRPPRLPRPRPRPDGFPRP | -0.0636
67 | RRIRIRPPRLPRPRPRPWSGPRP | -0.139
68 | RRIRTRPPRLPRPRPRPCGAPRP | 0.0999
69 | RRIRHRPPRLPRPRPRPFDPPRP | -0.101
70 | RRIRCRPPRLPRPRPRPRYWPRP | -0.0818
71 | RRIRNRPPRLPRPRPRPKNAPRP | -0.0561
72 | RRIRMRPPRLPRPRPRPIEVPRP | -0.00822
73 | RRIRMRPPRLPRPRPRPYNLPRP | 0.227
74 | RRIRDRPPRLPRPRPRPHYTPRP | -0.73
75 | RRIRLRPPRLPRPRPRPWWPPRP | 0.0144

Row | Sequence | shrunken log2 fold change
76 | RRIRPRPPRLPRPRPRPDSHPRP | 0.101
77 | RRIRQRPPRLPRPRPRPALNPRP | -0.0345
78 | RRIRDRPPRLPRPRPRPIRQPRP | 0.193
79 | RRIRDRPPRLPRPRPRPDTVPRP | -0.0743
80 | RRIRARPPRLPRPRPRPKQSPRP | 0.608
81 | RRIRCRPPRLPRPRPRPWFCPRP | -0.177
82 | RRIRYRPPRLPRPRPRPQSNPRP | -0.07
83 | RRIRFRPPRLPRPRPRPHICPRP | -0.0238
84 | RRIRTRPPRLPRPRPRPMYIPRP | -1.2
85 | RRIRMRPPRLPRPRPRPFCCPRP | 0.534
86 | RRIRGRPPRLPRPRPRPQDVPRP | 0.0766
87 | RRIRMRPPRLPRPRPRPYMWPRP | -0.38
88 | RRIRERPPRLPRPRPRPYPMPRP | -0.172
89 | RRIRTRPPRLPRPRPRPNGFPRP | -0.0646
90 | RRIRLRPPRLPRPRPRPLSYPRP | 0.128
91 | RRIRTRPPRLPRPRPRPKLYPRP | -0.363
92 | RRIRSRPPRLPRPRPRPMPLPRP | -0.0685
93 | RRIRIRPPRLPRPRPRPASLPRP | -0.0288
94 | RRIRVRPPRLPRPRPRPGDSPRP | -0.0395
95 | RRIRNRPPRLPRPRPRPHSTPRP | -0.412
96 | RRIRDRPPRLPRPRPRPPAYPRP | -0.0668
97 | RRIRTRPPRLPRPRPRPPIVPRP | -0.175
98 | RRIRSRPPRLPRPRPRPYKQPRP | -0.62
99 | RRIRQRPPRLPRPRPRPNWSPRP | 0.148
100 | RRIRDRPPRLPRPRPRPPSVPRP | 0.258

Row | Sequence | shrunken log2 fold change
101 | RRIRWRPPRLPRPRPRPMEAPRP | 0.0987
102 | RRIRPRPPRLPRPRPRPQPIPRP | 0.0388
103 | RRIRLRPPRLPRPRPRPCSQPRP | -0.0964
104 | RRIRLRPPRLPRPRPRPSLPPRP | -0.0357
105 | RRIRTRPPRLPRPRPRPEGRPRP | 0.1
106 | RRIRGRPPRLPRPRPRPRGPPRP | 1.66
107 | RRIRRRPPRLPRPRPRPMRHPRP | 1.18
108 | RRIRARPPRLPRPRPRPKHPPRP | 0.199
109 | RRIRERPPRLPRPRPRPIAGPRP | 0.0426
110 | RRIRLRPPRLPRPRPRPFAPPRP | 0.263
111 | RRIRTRPPRLPRPRPRPVMDPRP | -0.478
112 | RRIRCRPPRLPRPRPRPARWPRP | 0.56
113 | RRIRGRPPRLPRPRPRPEIDPRP | 1.63
114 | RRIRWRPPRLPRPRPRPEDAPRP | 0.00499
115 | RRIRSRPPRLPRPRPRPNSKPRP | -0.382
116 | RRIRVRPPRLPRPRPRPMSSPRP | 0.0619
117 | RRIRWRPPRLPRPRPRPRVEPRP | 0.0508
118 | RRIRSRPPRLPRPRPRPCYFPRP | -0.387
119 | RRIRDRPPRLPRPRPRPDYKPRP | 0.00454
120 | RRIRCRPPRLPRPRPRPQPQPRP | 0.526
121 | RRIRWRPPRLPRPRPRPVKDPRP | -0.0234
122 | RRIRCRPPRLPRPRPRPNIWPRP | -0.178
123 | RRIRIRPPRLPRPRPRPVWEPRP | 0.108
124 | RRIRHRPPRLPRPRPRPQGPPRP | -0.235
125 | RRIRVRPPRLPRPRPRPMSTPRP | -0.268

Row | Sequence | shrunken log2 fold change
126 | RRIRRRPPRLPRPRPRPMNSPRP | -0.101
127 | RRIRKRPPRLPRPRPRPYVDPRP | -0.24
128 | RRIRTRPPRLPRPRPRPWWGPRP | 0.221
129 | RRIRSRPPRLPRPRPRPNYLPRP | -0.071
130 | RRIRDRPPRLPRPRPRPRGNPRP | 0.088
131 | RRIRKRPPRLPRPRPRPDCRPRP | -0.00777
132 | RRIRIRPPRLPRPRPRPGTTPRP | 0.252
133 | RRIRVRPPRLPRPRPRPFKEPRP | 0.121
134 | RRIRWRPPRLPRPRPRPWMWPRP | 0.0359
135 | RRIRDRPPRLPRPRPRPKQRPRP | 0.314
136 | RRIRYRPPRLPRPRPRPHLGPRP | 0.0406
137 | RRIRSRPPRLPRPRPRPRMFPRP | -0.121
138 | RRIRPRPPRLPRPRPRPTWGPRP | 0.593
139 | RRIRDRPPRLPRPRPRPLIFPRP | 0.135
140 | RRIRRRPPRLPRPRPRPESEPRP | 0.0778
141 | RRIRTRPPRLPRPRPRPLQHPRP | -0.257
142 | RRIRHRPPRLPRPRPRPLTHPRP | -1.14
143 | RRIRTRPPRLPRPRPRPQWTPRP | -1.27
144 | RRIRRRPPRLPRPRPRPMMWPRP | 0.487
145 | RRIRPRPPRLPRPRPRPHLSPRP | -0.142
146 | RRIRARPPRLPRPRPRPHWHPRP | -0.0354
147 | RRIRERPPRLPRPRPRPAALPRP | -0.0784
148 | RRIRWRPPRLPRPRPRPYKCPRP | 0.0561
149 | RRIRERPPRLPRPRPRPASGPRP | 0.133
150 | RRIRQRPPRLPRPRPRPDPYPRP | 0.032
